Patent publication US20250346663A1 (published 2025)

Key:
Gen2 leptin = test: BLI; sample PP5871-021
[1] = target: mbp_G4S_hlep(22-167)V94M (MBP-(G4S)-human leptin V94M-6His); test: BLI; sample PP2054-095

Binder	Kd (Gen2 leptin)	Kd [1]
human leptin receptor (Fc-tagged dimeric) (Fc fusion) FNLSYPITPWRFKLSCMPPNSTYDYFLLPAGLSKNTSNSNGHYETAVEPKFNSSGTHFSNLSKTTFHCCFRSEQDRNCSLCADNIEGKTFVSTVNSLVFQQIDANWNIQCWLKGDLKLFICYVESLFKNLFRNYNYKVHLLYVLPEVLEDSPLVPQKGSFQMVHCNCSVHECCECLVPVPTAKLNDTLLMCLKITSGGVIFQSPLMSVQPINMVKPDPPLGLHMEITDDGNLKISWSSPPLVPFPLQYQVKYSENSTTVIREADKIVSATSLLVDSILPGSSYEVQVRGKRLDGPGIWSDWSTPRVFTTQDVIYFPPKILTSVGSNVSFHCIYKKENKIVPSKEIVWWMNLAEKIPQSQYDVVSDHVSKVTFFNLNETKPRGKFTYDAVYCCNEHECHHRYAELYVIDVNINISCETDGYLTKMTCRWSTSTIQSLAESTLQLRYHRSSLYCSDIPSIHPISEPKDCYLQSDGFYECIFQPIFLLSGYTMWIRINHSLGSLDSPPTCVLPDSVVKPLPPSSVKAEITINIGLLKISWEKPVFPENNLQFQIRYGLSGKEVQWKMYEVYDAKSKSVSLPVPDLCAVYAVQVRCKRLDGLGYWSNWSNPAYTVVMDIKVPMRGPEFWRIINGDTMKKEKNVTLLWKPLMKNDSLCSVQRYVINHHTSCNGTWSEDVGNHTKFTFLWTEQAHTVTVLAINSIGASVANFNLTFSWPMSKVNIVQSLSAYPLNSSCVIVSWILSPSDYKLMYFIIEWKNLNEDGEIKWLRISSSVKKYYIHDHFIPIEKYQFSLYPIFMEGVGKPKIINSFTQDDIEKHQSD	1.41 nM	–
human FC-tagged dimeric leptin receptor (Fc fusion) FNLSYPITPWRFKLSCMPPNSTYDYFLLPAGLSKNTSNSNGHYETAVEPKFNSSGTHFSNLSKTTFHCCFRSEQDRNCSLCADNIEGKTFVSTVNSLVFQQIDANWNIQCWLKGDLKLFICYVESLFKNLFRNYNYKVHLLYVLPEVLEDSPLVPQKGSFQMVHCNCSVHECCECLVPVPTAKLNDTLLMCLKITSGGVIFQSPLMSVQPINMVKPDPPLGLHMEITDDGNLKISWSSPPLVPFPLQYQVKYSENSTTVIREADKIVSATSLLVDSILPGSSYEVQVRGKRLDGPGIWSDWSTPRVFTTQDVIYFPPKILTSVGSNVSFHCIYKKENKIVPSKEIVWWMNLAEKIPQSQYDVVSDHVSKVTFFNLNETKPRGKFTYDAVYCCNEHECHHRYAELYVIDVNINISCETDGYLTKMTCRWSTSTIQSLAESTLQLRYHRSSLYCSDIPSIHPISEPKDCYLQSDGFYECIFQPIFLLSGYTMWIRINHSLGSLDSPPTCVLPDSVVKPLPPSSVKAEITINIGLLKISWEKPVFPENNLQFQIRYGLSGKEVQWKMYEVYDAKSKSVSLPVPDLCAVYAVQVRCKRLDGLGYWSNWSNPAYTVVMDIKVPMRGPEFWRIINGDTMKKEKNVTLLWKPLMKNDSLCSVQRYVINHHTSCNGTWSEDVGNHTKFTFLWTEQAHTVTVLAINSIGASVANFNLTFSWPMSKVNIVQSLSAYPLNSSCVIVSWILSPSDYKLMYFIIEWKNLNEDGEIKWLRISSSVKKYYIHDHFIPIEKYQFSLYPIFMEGVGKPKIINSFTQDDIEKHQSD	–	0.93 nM
